Measurements: paper PMC10696396 (2023)

B2: His6-SUMO-HilE (natural protein)
chain: MDAIYLKLDGIEGESRIKGFENQIKLIAYNHNPTKRESGEARGTYIGGLTLTKPVDLATPGLYEHYCNGKTVKEGVLTLCRRDKGAMLPFIIYTLTNVRISRMSNHGDAEGSATETVDLVYSHIRWDIPALASKSKTRRPLHRQALWR
modifications: RED-tris-NTA 2nd Generation dye bound to the His6 tag

Tests used:
Assay in all cases: MST
His6-SUMO-HilE = target: B2
HilD K279M = target: HilD K279M
HilD S216I/S218D = target: HilD S216I/S218D
[1] = target: EYFP-HilD E102A/K264A/R267A

B1: HilD (full-length, unfused) (natural protein)
chain: MENVTFVSNSHQRPAADNLQKLKSLLTNTRQQIKSQTQQVTIKNLYVSSFTLVCFRSGKLTISNNHDTIYCDEPGMLVLKKEQVVNVTLEEVNGHMDFDILEIPTQRLGALYALIPNEQQTKMAVPTEKAQKIFYTPDFPARREVFEHLKTAFSCTKDTSKGCSNCNNKSCIENEELIPYFLLFLLTAFLRLPESYEIILSSAQITLKERVYNIISSSPSRQWKLTDVADHIFMSTSTLKRKLAEEGTSFSDIYLSARMNQAAKLLRIGNHNVNAVALKCGYDSTSYFIQCFKKYFKTTPSTFIKMANH
In the case of B1, the Kd (His6-SUMO-HilE) is reported as 1890 nM.

B2 gave a Kd (HilD K279M) of 2120 nM and a Kd (HilD S216I/S218D) of 1160 nM.

B3: HilE (natural protein)
chain: MDAIYLKLDGIEGESRIKGFENQIKLIAYNHNPTKRESGEARGTYIGGLTLTKPVDLATPGLYEHYCNGKTVKEGVLTLCRRDKGAMLPFIIYTLTNVRISRMSNHGDAEGSATETVDLVYSHIRWDIPALASKSKTRRPLHRQALWR
B3 gave a Kd [1] of 1680 nM.
